# Assay results: patent US20180016327A1 (Chugai, published 2018)
# Target: T1, human C5 (human, UniProt P01031 19-673; P01031 678-1676, Beta and alpha chains are disulfide-linked and the protein is glycosylated.)
# T1 construct: Either in-house recombinant C5 or plasma derived C5 (CALBIOCHEM) was used; also called recombinant human C5; plasma derived human C5
# Assay: Biacore, captured antibody, pH 7.4, 37 C;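 also: biacore binding response of anti-C5 antibody light chain variants captured on chip with human C5 injected, ACES running buffer containing 1.2 mM CaCl₂, parent light chain antibody set to 100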
row,Binder,% binding (parent = 100)
1,"CFP0011 11L 32Q (antibody, V domains shown) VH: QVQLVQSGAEVKKPGSSVKVSCKASGGTFSSYAISWVRQAPGQGLEWMGGIIPIFGTANYAQKFQGRVTITADESTSTAYMELSSLRSEDTAVYYCARDMSEFLGWSNYYSYPMDVWGQGTTVTVSS VL: DIQMTQSPSSLSASVGDRVTITCRASQSIEDQLAWYQQKPGKAPKLLIYHASSLQSGVPSRFSGSGSGTDFTLTISSLQPEDFATYYCQQSDNSPYTFGQGTKVEIK",18.4%
2,"CFP0011 11L 34N (antibody, V domains shown) VH: QVQLVQSGAEVKKPGSSVKVSCKASGGTFSSYAISWVRQAPGQGLEWMGGIIPIFGTANYAQKFQGRVTITADESTSTAYMELSSLRSEDTAVYYCARDMSEFLGWSNYYSYPMDVWGQGTTVTVSS VL: DIQMTQSPSSLSASVGDRVTITCRASQSIEDDLNWYQQKPGKAPKLLIYHASSLQSGVPSRFSGSGSGTDFTLTISSLQPEDFATYYCQQSDNSPYTFGQGTKVEIK",29.2%
3,"CFP0011 11L 50A (antibody, V domains shown) VH: QVQLVQSGAEVKKPGSSVKVSCKASGGTFSSYAISWVRQAPGQGLEWMGGIIPIFGTANYAQKFQGRVTITADESTSTAYMELSSLRSEDTAVYYCARDMSEFLGWSNYYSYPMDVWGQGTTVTVSS VL: DIQMTQSPSSLSASVGDRVTITCRASQSIEDDLAWYQQKPGKAPKLLIYAASSLQSGVPSRFSGSGSGTDFTLTISSLQPEDFATYYCQQSDNSPYTFGQGTKVEIK",95.2%
4,"CFP0011 11L 50D (antibody, V domains shown) VH: QVQLVQSGAEVKKPGSSVKVSCKASGGTFSSYAISWVRQAPGQGLEWMGGIIPIFGTANYAQKFQGRVTITADESTSTAYMELSSLRSEDTAVYYCARDMSEFLGWSNYYSYPMDVWGQGTTVTVSS VL: DIQMTQSPSSLSASVGDRVTITCRASQSIEDDLAWYQQKPGKAPKLLIYDASSLQSGVPSRFSGSGSGTDFTLTISSLQPEDFATYYCQQSDNSPYTFGQGTKVEIK",58.2%
5,"CFP0011 11L 50E (antibody, V domains shown) VH: QVQLVQSGAEVKKPGSSVKVSCKASGGTFSSYAISWVRQAPGQGLEWMGGIIPIFGTANYAQKFQGRVTITADESTSTAYMELSSLRSEDTAVYYCARDMSEFLGWSNYYSYPMDVWGQGTTVTVSS VL: DIQMTQSPSSLSASVGDRVTITCRASQSIEDDLAWYQQKPGKAPKLLIYEASSLQSGVPSRFSGSGSGTDFTLTISSLQPEDFATYYCQQSDNSPYTFGQGTKVEIK",75.6%
6,"CFP0011 11L 53H (antibody, V domains shown) VH: QVQLVQSGAEVKKPGSSVKVSCKASGGTFSSYAISWVRQAPGQGLEWMGGIIPIFGTANYAQKFQGRVTITADESTSTAYMELSSLRSEDTAVYYCARDMSEFLGWSNYYSYPMDVWGQGTTVTVSS VL: DIQMTQSPSSLSASVGDRVTITCRASQSIEDDLAWYQQKPGKAPKLLIYHASHLQSGVPSRFSGSGSGTDFTLTISSLQPEDFATYYCQQSDNSPYTFGQGTKVEIK",115%
7,"CFP0011 11L 53N (antibody, V domains shown) VH: QVQLVQSGAEVKKPGSSVKVSCKASGGTFSSYAISWVRQAPGQGLEWMGGIIPIFGTANYAQKFQGRVTITADESTSTAYMELSSLRSEDTAVYYCARDMSEFLGWSNYYSYPMDVWGQGTTVTVSS VL: DIQMTQSPSSLSASVGDRVTITCRASQSIEDDLAWYQQKPGKAPKLLIYHASNLQSGVPSRFSGSGSGTDFTLTISSLQPEDFATYYCQQSDNSPYTFGQGTKVEIK",105%
8,"CFP0011 11L 53T (antibody, V domains shown) VH: QVQLVQSGAEVKKPGSSVKVSCKASGGTFSSYAISWVRQAPGQGLEWMGGIIPIFGTANYAQKFQGRVTITADESTSTAYMELSSLRSEDTAVYYCARDMSEFLGWSNYYSYPMDVWGQGTTVTVSS VL: DIQMTQSPSSLSASVGDRVTITCRASQSIEDDLAWYQQKPGKAPKLLIYHASTLQSGVPSRFSGSGSGTDFTLTISSLQPEDFATYYCQQSDNSPYTFGQGTKVEIK",98.9%
